Target: the molecule itself
Assay: crystal structure

B1: Miner1 (C92S), soluble region of human Miner1 (amino acids 57-135) (domain or fragment)
chain: GSHMRPFLPKKKQQKDSLINLKIQKENPKVVNEINIEDLSLTKAAYCRCWRSKTFPACDGSHNKHNELTGDNVGPLILKKKEV
stoichiometry N: 2
